Measurements: the supplement of paper PMC9170038

Test system: MS2 coat protein
Assay: apparent KD of MS2 coat protein; designed switch direction (-1 OFF switch, 1 ON switch): -1; higher = weaker reporter binding
How it was run: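 The reported apparent KD is a per-design median over clusters, from curve fits of normalised cluster fluorescence. Protein titrations used SNAP-549-labelled MS2 coat protein, doubled from 0.7 or 1.5 nM to 3 µM, in Tris-HCl pH 7.5 buffer with KCl, MgCl2, BSA, DTT, tRNA and Tween-20, with no input, 200 uM small-molecule ligand, or an oligonucleotide input. The RNA switches were transcribed on Illumina chips by stalled E. coli RNA polymerase.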

[1] = input ligand: microRNA oligo, concentration not stated
[2] = Eterna round: R95, input ligand: microRNA oligo, concentration not stated
[3] = Eterna round: R95, input ligand: FMN 200 uM
[4] = Eterna round: R95, input ligand: none

## UUAACAUGCUGGUGAUCAUACAUGAGGAUCACCCAUGUAACAAGCUUUUUGUUCGUCUUAUAAGAUCACCAGCAUGU [Stov1/9-B1] (Eterna round: R97, puzzle: Sensor, turn-off variant 1)
Input ligand: FMN 200 uM
  apparent KD of MS2 coat protein: 18.7 nM
Input ligand: none
  apparent KD of MS2 coat protein: 17.2 nM

## CGGCUACGAUGAGGAUAUACGCACAUGAGGAUCACCCAUGUAAAUCACGGGUAAAGAUCUUCAUCGUAGAAGGCAUAAGGGCCC [Edarbelabe] (Eterna round: R96, puzzle: Exclusion NG 2)
Input ligand: FMN 200 uM
  apparent KD of MS2 coat protein: 31.8 nM
[1]
  apparent KD of MS2 coat protein: 20.9 nM
Input ligand: none
  apparent KD of MS2 coat protein: 31.4 nM

## CUUUUGUGAGGAUAUCAGUAUUAAAAAAAUAAAAUUACUACUGAGAAGGCACAUGAGGAUCACCCAUGUUCCUC [salish99_ex4_r3_032] (puzzle: Exclusion 4)
[2]
  apparent KD of MS2 coat protein: 34.4 nM

## CAUACUGAAGUUAGGAUAUGCGGCCGAAUACGGGUGUAGAAGGGACAUGAGGAUCACCCAUGUAGAUAGUAAAG [EX-4 Malc #16] (puzzle: Brourd's mod of Exclusion 4)
[3]
  apparent KD of MS2 coat protein: 27.3 nM
[2]
  apparent KD of MS2 coat protein: 24.9 nM
[4]
  apparent KD of MS2 coat protein: 20.1 nM

## CCGAGGUGGCGGUCCUAUGACAUGAGGAUCACCCAUGUACCUCGCCACAAGCUCUUUGCUCAUCUUAUAGUUCUCGG [Onlaor] (puzzle: Sensor v3, turn-off variant 1)
[3]
  apparent KD of MS2 coat protein: 18.6 nM
[2]
  apparent KD of MS2 coat protein: 124 nM
[4]
  apparent KD of MS2 coat protein: 17.9 nM

## GCACGGUAAGUGAGGAUAUACCUCUGGAUACAGAGGUAGAAGGCACAUGAGGAUCACCCAUGUCUAAGCCGUGC [Fiskers BMX 4 - 83] (puzzle: Brourd's mod of Exclusion 4)
[2]
  apparent KD of MS2 coat protein: 14.7 nM

## GUAAAUCAUGUAGGAUAUGCGUGGCGAAGCUAUGCAGAAGGACAUGAGGAUCACCCAUGUGCUUCCGUCUGAGAACAGACGGAG [Mat - Exclusion NG 1 - Mod of JL - D28] (Eterna round: R96, puzzle: Exclusion NG 1)
Input ligand: FMN 200 uM
  apparent KD of MS2 coat protein: 222 nM
[1]
  apparent KD of MS2 coat protein: 116 nM
Input ligand: none
  apparent KD of MS2 coat protein: 244 nM

## GGAGAACAUGAGGAUCACCCAUGUAAGGAUAUGCAAAAGGAUAUAGAAGGAAAAAAAAGCAGAAGGUACAAAGG [salish99-ex1_r3_101] (puzzle: Exclusion 1)
[3]
  apparent KD of MS2 coat protein: 79.5 nM
[2]
  apparent KD of MS2 coat protein: 81.9 nM
[4]
  apparent KD of MS2 coat protein: 75.1 nM

## AUGGGACAUGAGGAUCACCCAUGUCAGGAUAUGCUCUGAUGCGGCGUACGCCGUGCUAGCAGAAGGGACUACCU [EX1 C.19] (Eterna round: R97, puzzle: Exclusion 1)
Input ligand: FMN 200 uM
  apparent KD of MS2 coat protein: 29 nM
Input ligand: none
  apparent KD of MS2 coat protein: 28 nM

## AGUUGGCGAGGAUAUACAUGAGGAUCACCCAUGUGAAUAAGAAUAGUGAGGAAGAAAAGUAGAAGGCGCUGACA [Mat - Exclusion 3 - Mod of Salish D36] (puzzle: Exclusion 3)
[3]
  apparent KD of MS2 coat protein: 237 nM
[2]
  apparent KD of MS2 coat protein: 39.8 nM
[4]
  apparent KD of MS2 coat protein: 44.5 nM

## AUUUUGUGAGGAUAUUAGUUUUAUAAUUUUAUUAGUUUAGCUGAGAAGGCACAUGAGGAUCACCCAUGUAAAUC [JR_Ex4_Sub045] (Eterna round: R97, puzzle: Exclusion 4)
Input ligand: FMN 200 uM
  apparent KD of MS2 coat protein: 42.5 nM
Input ligand: none
  apparent KD of MS2 coat protein: 22.9 nM

## AAGGGUGCUUUCAGAACGACAUGAGGAUCACCCAUGUAGACUGAGGAUAUCUACUCCUAAGGACGGGAGAAGGUAGUGUAAUGC [Ex NG3 #66] (Eterna round: R96, puzzle: Exclusion NG 3)
Input ligand: FMN 200 uM
  apparent KD of MS2 coat protein: 22.8 nM
[1]
  apparent KD of MS2 coat protein: 17.7 nM
Input ligand: none
  apparent KD of MS2 coat protein: 26.1 nM

## AUUCAACAUGAGGAUCACCCAUGUGAGGAUAUGCGAGAAUAGACUUCGGUCAGAUAGAGCAGAAGGCGCAGAUA [EX1 #5] (Eterna round: R97, puzzle: Exclusion 1)
Input ligand: FMN 200 uM
  apparent KD of MS2 coat protein: 22 nM
Input ligand: none
  apparent KD of MS2 coat protein: 29.1 nM

## UAUAAGAUAGGAUAUACAGGCCCGUCUUCAUAUUGAUCCCGACAUGAGGAUCACCCAUGUAGAAGGAUCGUAUA [Mod 23 - Jieux - Exclusion 2] (Eterna round: R97, puzzle: Exclusion 2)
Input ligand: FMN 200 uM
  apparent KD of MS2 coat protein: 23.3 nM
Input ligand: none
  apparent KD of MS2 coat protein: 21.9 nM
